This assay concerns the target KLC1 TPR domain (kinesin light chain 1 tetratricopeptide repeat domain) (human) (UniProt Q07866). Briefly: ITC; protein-protein: 15 uM KLC1-TPR and 160 uM ALC1 protein; 25 C; 30 mM HEPES 7.4, 200 mM NaCl, 0.5 mM TCEP; one-site binding model. (In general: In ITC the heat of successive injections is recorded.)

Broadly, the Kd is the concentration at which binding is half-saturated. A low value points to tighter binding. As a reminder, the stoichiometry N is a count of units in the complex or per binding partner. “cytosolic domain of ALC1 protein (alcadein-1) (domain or fragment)” yielded a Kd of 2400 nM and a stoichiometry N of 0.85.

These data come from article PMC3314626, “Crystal Structures of the Tetratricopeptide Repeat Domains of Kinesin Light Chains: Insight into Cargo Recognition Mechanisms” (PLoS ONE, 2012).
